This experiment concerns the target LC3 (microtubule-associated protein 1 light chain 3), endogenous (mouse (endogenous in mouse brain and cultured mouse neurons)) (UniProt Q91VR7). Description: proximity ligation; cultured mouse cortical and cerebellar neurons (wild-type, L1_(687) and L1_(858–863) mutant), without or with L1 antibody 557 (50 µg/mL, 2 h) and without or with tat-LIRWT peptide; fixed, Duolink PLA with mouse L1 antibody C-2 and rabbit LC3 antibody; red spots per cell.

Turning to “full-length L1 (neural cell adhesion molecule L1) (from UniProt P11627 20-1260) (natural protein)”, the fold increase of L1/LC3 proximity ligation spots with L1 antibody 557 against unstimulated neurons was determined as 4 fold.

The values are drawn from PMC10419456.
